Laboratory results from paper PMC4740771, “Nucleotide-dependent assembly of the peroxisomal receptor export complex” (Scientific Reports, 2016).
Blank lines part the entries; values can stand above or below the binder they belong to.

How the values were obtained:
[1] = target: T1, HisPex6p (S. cerevisiae, UniProt P33760 1-1030); assay: pull-down; GST-Pex15p(1-315)His incubated with purified proteins, loaded on GSH-agarose, eluted with glutathione; 5 mM ATP; Coomassie and immunoblot, signal intensities of load and eluate; settings: both partners purified
T1 construct: Pex6p, type II AAA-ATPase peroxin of yeast; also called single Pex6p; isolated Pex6p; source: E. coli Tuner (DE3), purified (NiNTA-agarose; with HisPex1pGST also GSH-agarose and size exclusion); not shown: His6, N-terminal, kept
T1 sequence (looked up): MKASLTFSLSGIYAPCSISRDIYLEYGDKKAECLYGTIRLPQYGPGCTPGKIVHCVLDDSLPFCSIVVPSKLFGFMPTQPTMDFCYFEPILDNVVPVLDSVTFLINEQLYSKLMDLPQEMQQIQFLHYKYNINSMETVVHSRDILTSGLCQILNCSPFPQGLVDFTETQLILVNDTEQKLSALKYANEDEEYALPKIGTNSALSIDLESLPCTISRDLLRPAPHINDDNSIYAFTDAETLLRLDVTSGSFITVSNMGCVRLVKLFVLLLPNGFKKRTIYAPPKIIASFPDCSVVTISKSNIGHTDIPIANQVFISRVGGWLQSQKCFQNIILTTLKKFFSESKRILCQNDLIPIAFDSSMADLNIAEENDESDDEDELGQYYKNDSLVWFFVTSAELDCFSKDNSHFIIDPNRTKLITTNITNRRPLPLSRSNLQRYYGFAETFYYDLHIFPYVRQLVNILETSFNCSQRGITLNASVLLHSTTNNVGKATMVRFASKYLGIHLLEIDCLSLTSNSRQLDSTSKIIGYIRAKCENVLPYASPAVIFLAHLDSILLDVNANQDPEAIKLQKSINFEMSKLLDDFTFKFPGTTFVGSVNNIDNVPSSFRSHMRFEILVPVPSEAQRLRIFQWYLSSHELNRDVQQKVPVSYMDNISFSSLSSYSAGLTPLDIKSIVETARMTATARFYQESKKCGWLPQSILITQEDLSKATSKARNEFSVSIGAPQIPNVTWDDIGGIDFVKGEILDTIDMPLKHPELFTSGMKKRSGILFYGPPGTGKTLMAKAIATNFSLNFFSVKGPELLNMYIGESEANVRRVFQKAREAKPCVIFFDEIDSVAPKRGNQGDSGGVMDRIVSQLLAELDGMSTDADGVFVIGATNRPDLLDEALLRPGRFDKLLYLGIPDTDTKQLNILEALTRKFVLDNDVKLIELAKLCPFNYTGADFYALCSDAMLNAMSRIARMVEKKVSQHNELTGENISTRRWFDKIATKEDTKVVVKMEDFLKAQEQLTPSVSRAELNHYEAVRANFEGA

[2] = target: T2, Pex1/6p-complex (recombinant heterohexameric AAA-complex) (S. cerevisiae, UniProt P24004 1-1043; P33760 1-1030); assay: as above; settings: both partners purified
T2 construct: Pex1p of yeast, as the chain of m3; Pex6p of yeast, as the chain of m2; Described as a trimer of Pex1/6p dimers (heterohexamer, about 700 kDa); Isolated in 5 mM ATP or 5 mM ADP as said for each assay; also called Pex1p/Pex6p-complex; wild-type Pex1/6p; source: E. coli Tuner (DE3), cells mixed and lysed, co-purified (NiNTA-agarose, GSH-agarose, thrombin release, size exclusion); not shown: His6, …

[3] = target: T3, Pex1WB/6p complex (Pex1p E798Q with wild-type Pex6p) (S. cerevisiae, UniProt P24004 1-1043; P33760 1-1030, E798Q); assay: as above; settings: both partners purified
T3 construct: Pex1p of yeast with the Walker B mutation of the D2 domain; Pex6p of yeast, as the chain of m2; also called Pex1WB^E798Q/6p; not shown: His6, N-terminal, kept; GST, C-terminal, cleaved; copies: 3 + 3

[4] = target: T4, Pex1/6pWB complex (wild-type Pex1p with Pex6p E832Q) (S. cerevisiae, UniProt P24004 1-1043; P33760 1-1030, E832Q); assay: as above; settings: both partners purified
T4 construct: Pex1p of yeast, as the chain of m3; Pex6p of yeast with the Walker B mutation of the D2 domain; also called Pex1p/Pex6pWB; Pex6WB mutant complex; not shown: His6, N-terminal, kept; GST, C-terminal, cleaved; copies: 3 + 3

[5] = target: the molecule itself; assay: SEC; as a1 but isolated and run in the presence of 5 mM ADP instead of ATP

- binding result [1]: binds
- binding result [2]: binds
- binding result [3]: binds
- binding result [4]: binds
B1: GST-Pex15p(1-315)His (domain or fragment, S. cerevisiae, UniProt Q08215 1-315, looked up)
chain: MAASEIMNNLPMHSLDSSLRDLLNDDLFIESDESTKSVNDQRSEVFQECVNLFIKRDIKDCLEKMSEVGFIDITVFKSNPMILDLFVSACDIMPSFTKLGLTLQSEILNIFTLDTPQCIETRKIILGDLSKLLVINKFFRCCIKVIQFNLTDHTEQEEKTLELESIMSDFIFVYITKMRTTIDVVGLQELIEIFIFQVKVKLHHKKPSPNMYWALCKTLPKLSPTLKGLYLSKDVSIEDAILNSIDNKIQKDKAKSKGKQRGVKQKIHHFHEPMLHNSSEEQVKVEDAFNQRTSTDSRLQSTGTAPRKKNNDITV
notes: Pex15p, tail-anchored peroxisomal membrane protein of S. cerevisiae (genomic DNA of strain UTL-7A), cytosolic part, residues 1 to 315; also called cytosolic domain of Pex15p; source: E. coli BL21 (DE3), purified (Glutathione Agarose 4B, dialysis); not shown: GST, N-terminal, kept; His6, C-terminal, kept

B2: HisPex1p released from HisPex1pGST by thrombin (natural protein, S. cerevisiae, UniProt P24004 1-1043, looked up)
chain: MTTTKRLKFENLRIQFSNAIVGNFLRLPHSIINVLESTNYAIQEFGIAVHSHNSDIPIVHLGWDGHDSGSSENVVLINPVLATVYDLNQKSPLVDLYIQRYDHTHLATEVYVTPETSDDWEIIDANAMRFQNGEILHQTRIVTPGETLICYLEGIVTKFKIDRVEPSMKSARITDGSLVVVAPKVNKTRLVKAEYGHSNKTILKNGAIQLLKKVILRSTVCKMDFPKDNLFVVYISDGAQLPSQKGYASIVKCSLRQSKKSDSDNKSVGIPSKKIGVFIKCDSQIPENHIALSSHLWDAFFTHPMNGAKIKLEFLQMNQANIISGRNATVNIKYFGKDVPTKSGDQYSKLLGGSLLTNNLILPTEQIIIEIKKGESEQQLCNLNEISNESVQWKVTQMGKEEVKDIIERHLPKHYHVKETGEVSRTSKDEDDFITVNSIKKEMVNYLTSPIIATPAIILDGKQGIGKTRLLKELINEVEKDHHIFVKYADCETLHETSNLDKTQKLIMEWCSFCYWYGPSLIVLDNVEALFGKPQANDGDPSNNGQWDNASKLLNFFINQVTKIFNKDNKRIRVLFSGKQKTQINPLLFDKHFVSETWSLRAPDKHARAKLLEYFFSKNQIMKLNRDLQFSDLSLETEGFSPLDLEIFTEKIFYDLQLERDCDNVVTRELFSKSLSAFTPSALRGVKLTKETNIKWGDIGALANAKDVLLETLEWPTKYEPIFVNCPLRLRSGILLYGYPGCGKTLLASAVAQQCGLNFISVKGPEILNKFIGASEQNIRELFERAQSVKPCILFFDEFDSIAPKRGHDSTGVTDRVVNQLLTQMDGAEGLDGVYILAATSRPDLIDSALLRPGRLDKSVICNIPTESERLDILQAIVNSKDKDTGQKKFALEKNADLKLIAEKTAGFSGADLQGLCYNAYLKSVHRWLSAADQSEVVPGNDNIEYFSINEHGRREENRLRLKTLLQQDVVHETKTSTSAASELTAVVTINDLLEACQETKPSISTSELVKLRGIYDRFQKDRNGEMPNGENSIDIGSRLSLM
notes: Pex1p, type II AAA-ATPase peroxin of yeast; The GST tag held the complex on GSH-agarose during purification and stayed on the column after thrombin cleavage; source: E. coli Tuner (DE3), co-purified with HisPex6p (NiNTA-agarose, GSH-agarose, thrombin release); not shown: His6, N-terminal, kept; GST, C-terminal, cleaved
- stoichiometry N [5]: 3
